Reference: the supplement of paper PMC12764529
± gives the half width of the 95% confidence interval.

Experiments:
[1] = folding stability dG unfold from chymotrypsin proteolysis; higher = more stable
How it was run: (§1)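 Bayesian fitting of sequencing counts gave K50 for each design. Unfolding free energy followed by setting this against a sequence-predicted unfolded-state K50 and a shared folded-state K50, either per protease or with trypsin and chymotrypsin combined. The designs, under 80 residues and lacking cysteine, were digested in a PA-tagged cDNA display format at 11 threefold-diluted protease concentrations and without protease, and only those with AlphaFold2 dimer inter-PAE above 15 were kept.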

[2] = folding stability dG unfold from trypsin proteolysis; higher = more stable
How it was run: as §1

[3] = folding stability dG unfold (combined trypsin and chymotrypsin); higher = more stable
How it was run: as §1

Sequence	folding stability dG unfold [1] [kcal/mol]	folding stability dG unfold [2] [kcal/mol]	folding stability dG unfold [3] [kcal/mol]
SAGGSAGGSAKLVKITFSNGEELVLPADKFSIEAIKSLPVPAKVEVFDVPKSDTNLEDLLKSAGGSAGGSAG [r3_69_TrMRF]	2.03 ± 0.022	0.72 ± 0.043	1.66 ± 0.044
SAMRPGDPWKPVEERKIPIRNPNNGKEIEIEVYRFKDDGMYMVSIHFPDGKSIQFMVPPGDVEEIIEQISAG [r14_240_TrROS]	3.171 ± 0.016	1.29 ± 0.037	2.8 ± 0.058
SAGGSAGGWQPIAEHEFENPEDGKKIKIYYWPENGMMRIEFPNGRKHVIPPGDPFKSIEEMIKASAGGSAGG [r6_72_TrROS]	1.81 ± 0.059	1.15 ± 0.071	1.54 ± 0.14
SAGGSAEVYKVKIKIERVLPNGEKVEEEITIEVEGMSEEELLALARELAAEPGVRIKEIEIEKLPPSAGGSA [r15_550_TrROS_Hall]	4.54 ± 0.19	4.82 ± 0.24	4.65 ± 0.38
SAGGMVTIELREVSEEEALKLAEELPPNTLLIPFPFGNLVLPVRVPDDPEVREKVAEEIRKFLEALPSAGGS [r16_311_TrMRF]	0.0455 ± 0.19	1.13 ± 0.023	0.67 ± 0.13
SAGGSAGGMTKDDIIEKLKKEYPDKDVKVLKVEESVLPSGKILAKVTLEFPEEGKTFEKTFEVESAGGSAGG [r6_572_JUSTAS]	2.69 ± 0.13	2.91 ± 0.3	2.71 ± 0.2
SAGGSAGGSAGGKKIHLFMPKEVAEKFAKELEKLGIDSKEVEIEFHEVDIPPSLPPELKSAGGSAGGSAGGS [r10_602_TrMRF]	-0.594 ± 0.48	-0.0238 ± 0.15	-0.0833 ± 0.27
SAGGSAGGGDLVVYRLEVRRFEPGTGRLVETRSRTVVVPKEDLPELLERIPPGYEVLRIEAFPESAGGSAGG [r6_776_TrMRF]	0.361 ± 0.16	0.636 ± 0.067	0.494 ± 0.11
SAAPDEVVTLEFTVPVVTTFEPGAPYVAPARLTVTFHPPDRVEIRLVSPDGRLVATRTVPPSVLLSEVISAG [r14_559_TrMRF]	2.03 ± 0.041	1.62 ± 0.032	1.88 ± 0.081
SAEMTEEERARRLAEKLREELEELGVEKVEIEFDEEERRVTVRVTLSPEVREKLAERLGLSREELDALLSAG [r14_688_TrROS_Hall]	2.914 ± 0.023	4.1 ± 0.1	3.43 ± 0.079
SAGGSAGVPPGGRVRVLVYNPLTGEVREVELPVGSLEEFLRGANLPAPLPDGRPAPVVVEILEVEPSAGGSA [r15_797_TrMRF]	3.11 ± 0.081	1.77 ± 0.14	2.64 ± 0.36
SAGGSAGGVIRMPFVIPDGYVIKDLTVHWSPGNGMFMIEIEIEPVKPPPPPEISPEELNKKNNKSAGGSAGG [r6_148_TrROS]	2.57 ± 0.04	2.15 ± 0.21	2.41 ± 0.12
SMKITEIEPDGDGTLEIEIPVEAPPGMDPDEVQIYVMSDDGIRHVRITPNGTVEITIENIPDIRIYIFVHSA [r9_722_TrROS]	2.47 ± 0.073	1.79 ± 0.051	2.26 ± 0.079
SAGGSAGGSAGSSTSTSSDGVLTTYFPDGTVTSTETKPDPSTGTVLAVSTTTTPLPPDTLSAGGSAGGSAGG [r11_497_JUSTAS]	0.572 ± 0.035	2.01 ± 0.044	1.39 ± 0.032
SKKVKITEITFPEGATFDGKKVTVTIKIVDEETGTVTITEITVDKNGKVTIKEVTVKVDPKTGKIVEITPSA [r9_122_TrROS_Hall]	2.02 ± 0.04	1.74 ± 0.06	1.8 ± 0.19
SAGMTFEVRYPLPPGQTHKEAREEVKDMVESIAREFMPEGWKIEPKDIDVDPDKGWIEYKVDIEIPPGMSAG [r5_146_TrROS]	1.94 ± 0.12	1.19 ± 0.12	1.72 ± 0.18
SAGGSAGGSAGFNIRIVNVEITGNKLTIYLPNGWVITIKFNKNGNINMKIEDIKPLPPGASAGGSAGGSAGG [r17_173_TrROS]	3.98 ± 0.064	3.02 ± 0.16	3.61 ± 0.14
